Experiments:
ovalbumin, native = ovalbumin, native (UniProt P01012)
[1] = target: modified ovalbumin (denatured and partially refolded) (UniProt P01012)
[2] = system: synthetic Bovine Serum Albumin peptide 5 (BSA5)
glucose oxidase = glucose oxidase (UniProt P13006)
β-casein = target: T1, β-casein (UniProt P02666)
T1 sequence: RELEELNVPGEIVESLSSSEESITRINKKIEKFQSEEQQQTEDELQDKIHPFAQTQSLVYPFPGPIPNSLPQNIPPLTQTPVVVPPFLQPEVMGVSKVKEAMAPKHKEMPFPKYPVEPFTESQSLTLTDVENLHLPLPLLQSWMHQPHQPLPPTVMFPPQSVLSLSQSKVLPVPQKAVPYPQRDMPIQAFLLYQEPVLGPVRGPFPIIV

[3] = system: recombinant serum albumin
Sequence of recombinant serum albumin (P02768 25-609): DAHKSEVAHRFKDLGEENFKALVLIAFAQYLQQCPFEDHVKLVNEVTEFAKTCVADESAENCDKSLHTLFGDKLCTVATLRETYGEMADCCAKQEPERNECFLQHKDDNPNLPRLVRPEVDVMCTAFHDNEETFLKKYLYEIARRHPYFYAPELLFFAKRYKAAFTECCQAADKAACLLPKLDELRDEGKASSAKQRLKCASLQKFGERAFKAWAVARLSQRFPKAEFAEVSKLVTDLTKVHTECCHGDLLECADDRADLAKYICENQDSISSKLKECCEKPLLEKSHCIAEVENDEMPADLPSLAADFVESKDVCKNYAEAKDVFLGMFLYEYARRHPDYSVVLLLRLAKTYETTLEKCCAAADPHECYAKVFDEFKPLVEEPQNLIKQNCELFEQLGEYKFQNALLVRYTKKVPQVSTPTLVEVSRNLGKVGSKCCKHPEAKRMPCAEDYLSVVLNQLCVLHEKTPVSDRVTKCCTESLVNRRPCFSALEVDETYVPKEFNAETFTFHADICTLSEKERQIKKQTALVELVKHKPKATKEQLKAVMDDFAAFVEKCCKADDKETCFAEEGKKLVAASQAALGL

[4] = system: myelin basic protein (MBP)
Sequence of myelin basic protein (MBP) (P02687 whole entry): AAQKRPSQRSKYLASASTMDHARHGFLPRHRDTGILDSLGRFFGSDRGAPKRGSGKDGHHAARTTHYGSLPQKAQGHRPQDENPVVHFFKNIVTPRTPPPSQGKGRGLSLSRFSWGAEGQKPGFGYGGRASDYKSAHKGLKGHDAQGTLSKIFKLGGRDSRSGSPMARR

[5] = target: modified bovine serum albumin (denatured and partially refolded) (UniProt P02769)
Sequence of modified bovine serum albumin (denatured and partially refolded) (P02769 25-607): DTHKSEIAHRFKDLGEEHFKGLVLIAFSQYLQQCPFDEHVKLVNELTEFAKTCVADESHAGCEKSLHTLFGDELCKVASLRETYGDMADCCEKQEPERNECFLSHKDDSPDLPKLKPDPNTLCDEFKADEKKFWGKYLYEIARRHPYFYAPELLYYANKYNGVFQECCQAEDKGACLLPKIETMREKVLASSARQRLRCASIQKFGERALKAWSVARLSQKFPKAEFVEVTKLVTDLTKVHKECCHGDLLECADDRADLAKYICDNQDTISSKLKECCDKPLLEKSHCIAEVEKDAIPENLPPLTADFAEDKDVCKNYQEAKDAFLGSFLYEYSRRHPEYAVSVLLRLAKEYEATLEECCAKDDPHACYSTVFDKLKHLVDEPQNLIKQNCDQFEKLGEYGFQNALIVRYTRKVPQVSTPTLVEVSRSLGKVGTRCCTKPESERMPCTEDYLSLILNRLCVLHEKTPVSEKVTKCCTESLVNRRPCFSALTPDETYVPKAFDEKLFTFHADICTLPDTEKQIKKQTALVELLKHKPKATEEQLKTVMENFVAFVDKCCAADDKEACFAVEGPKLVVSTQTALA

[6] = system: modified histone H3 protein (denatured and partially refolded)
[7] = target: bovine serum albumin (BSA), native (UniProt P02769)
Sequence of bovine serum albumin (BSA), native (P02769 25-607): as above

Sequence of ovalbumin, native (P01012 2-386): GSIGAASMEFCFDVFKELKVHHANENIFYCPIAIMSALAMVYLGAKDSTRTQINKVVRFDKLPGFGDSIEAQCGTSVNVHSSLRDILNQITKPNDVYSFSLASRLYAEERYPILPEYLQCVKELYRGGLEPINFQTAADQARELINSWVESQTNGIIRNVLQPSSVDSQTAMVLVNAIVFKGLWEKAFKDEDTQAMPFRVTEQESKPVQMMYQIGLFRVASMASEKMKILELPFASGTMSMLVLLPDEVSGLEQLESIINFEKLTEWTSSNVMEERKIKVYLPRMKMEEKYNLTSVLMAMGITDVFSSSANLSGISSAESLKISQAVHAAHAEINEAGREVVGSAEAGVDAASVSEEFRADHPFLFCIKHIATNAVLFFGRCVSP
Sequence of modified ovalbumin (denatured and partially refolded) (P01012 2-386): as above
Sequence of glucose oxidase (P13006 23-605): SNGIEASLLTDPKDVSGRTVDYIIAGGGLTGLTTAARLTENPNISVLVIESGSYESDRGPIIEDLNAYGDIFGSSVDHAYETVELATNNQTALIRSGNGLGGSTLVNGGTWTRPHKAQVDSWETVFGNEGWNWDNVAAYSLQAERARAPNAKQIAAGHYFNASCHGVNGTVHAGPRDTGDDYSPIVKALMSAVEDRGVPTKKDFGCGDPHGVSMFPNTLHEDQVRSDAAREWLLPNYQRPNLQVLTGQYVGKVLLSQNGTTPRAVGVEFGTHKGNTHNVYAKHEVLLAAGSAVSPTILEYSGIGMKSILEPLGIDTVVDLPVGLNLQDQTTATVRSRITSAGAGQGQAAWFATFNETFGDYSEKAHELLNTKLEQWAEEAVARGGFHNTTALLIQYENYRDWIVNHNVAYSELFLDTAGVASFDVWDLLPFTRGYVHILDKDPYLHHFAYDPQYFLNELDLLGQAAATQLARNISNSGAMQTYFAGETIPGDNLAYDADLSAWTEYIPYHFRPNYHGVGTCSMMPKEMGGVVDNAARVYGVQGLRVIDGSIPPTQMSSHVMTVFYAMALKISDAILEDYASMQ

B1: recombinant 6X-His-TGase fusion protein of Streptomyces mobaraensis ATCC 29032 (enzyme, UniProt P81453 77-407, looked up)
Protein-glutamine gamma-glutamyltransferase: DSDDRVTPPAEPLDRMPDPYRPSYGRAETVVNNYIRKWQQVYSHRDGRKQQMTEEQREWLSYGCVGVTWVNSGQYPTNRLAFASFDEDRFKNELKNGRPRSGETRAEFEGRVAKESFDEEKGFQRAREVASVMNRALENAHDESAYLDNLKKELANGNDALRNEDARSPFYSALRNTPSFKERNGGNHDPSRMKAVIYSKHFWSGQDRSSSADKRKYGDPDAFRPAPGTGLVDMSRDRNIPRSPTSPGEGFVNFDYGWFGAQTEADADKTVWTHGNHYHAPNGSLGAMHVYESKFRNWSEGYSDFDRGAYVITFIPKSWNTAPDKVKQGWP
modifications: N-terminal 6xHis tag
- cross-linking of native non-substrate proteins (ovalbumin, native): there was no cross-linking even in the presence of a large amount of the purified recombinant transglutaminase fusion proteins in the activation solution
- cross-linking seen on SDS-PAGE [1]: only the reactions containing the modified protein species of BSA, histine H3 protein, glucose oxidase, and ovalbumin were cross-linked by the purified recombinant SM TGase
- cross-linking seen on SDS-PAGE, rising amounts of SM TGase [2]: increased amount of recombinant SM TGase corresponding to an increase in cross-linked (CL) BSA5 peptide, which run as a large molecular weight polymer on the top of the separating gel
- cross-linking of native non-substrate proteins (histone protein, native): there was no cross-linking even in the presence of a large amount of the purified recombinant transglutaminase fusion proteins in the activation solution
- cross-linking seen on SDS-PAGE (histone protein, native): complete and partial cross-linking was both observed for native histine H3 protein under the condition tested
- cross-linking of native non-substrate proteins (glucose oxidase): there was no cross-linking even in the presence of a large amount of the purified recombinant transglutaminase fusion proteins in the activation solution
- cross-linking of a mixture of β-casein and glucose oxidase, SDS-PAGE (β-casein): both protein species can be cross-linked by the purified recombinant SM TGase, as indicated by the disappearance of the two monomer bands
- cross-linking of β-casein seen on SDS-PAGE, 0 mM DTT (β-casein): in the absence of DTT (lane 1 and 2), the recombinant SM TGase had no cross-linking activity on β-casein
- cross-linking of β-casein seen on SDS-PAGE, about 2 mM DTT (β-casein): the recombinant SM TGase was activated and β-casein run as a mixture of cross-linked polymer and monomer
- cross-linking of β-casein seen on SDS-PAGE, about 10 mM DTT (β-casein): the catalytic cross-linking activity of SM TGase resulted in cross-linking of all detectable β-casein substrates in the reaction
- cross-linking seen on SDS-PAGE (β-casein): the cross-linked (CL) β-casein migrated as a smear on the SDS-PAGE gel indicating a mixture of high molecular weight polymers of different length
- cross-linking seen on SDS-PAGE [3]: the cross-linking reaction containing recombinant serum albumin revealed a mixture of very high molecular weight polymers of different length
- cross-linking of native non-substrate proteins [4]: there was no cross-linking even in the presence of a large amount of the purified recombinant transglutaminase fusion proteins in the activation solution
- cross-linking seen on SDS-PAGE [5]: only the reactions containing the modified protein species of BSA, histine H3 protein, glucose oxidase, and ovalbumin were cross-linked by the purified recombinant SM TGase
- cross-linking seen on SDS-PAGE [6]: only the reactions containing the modified protein species of BSA, histine H3 protein, glucose oxidase, and ovalbumin were cross-linked by the purified recombinant SM TGase
- cross-linking of native non-substrate proteins [7]: there was no cross-linking even in the presence of a large amount of the purified recombinant transglutaminase fusion proteins in the activation solution
- cross-linking seen on SDS-PAGE, 1, 2 and 3 hours (β-amyloid peptide (1-42)): The β-amyloid (1-42) peptide can be cross-linked by the recombinant transglutaminase as shown as a smear of a mixture of cross-linked peptides on the top of the separating gel and the disappearance of the peptide bands at the bottom of the SDS-PAGE

Reference: US20030219857
